Test results as given in patent US20200262885A1 (ANTAROS MEDICAL, published 2020).

B1: SEQ ID NO: 12 (peptide)
peptide: XSQGTFTSDXSKQXESRRAQEFIEWLLXGGPESGAPPPSX
modifications: Tza at 1; Tle at 10; Nle at 14; Bal at 28; Cys(VS-DO3A(Ga)) at 40; C-terminal amide

Experiments:
[1] = biological target: human glucagon receptor (human, UniProt P47871 26-477); test: cell-based or functional assay
[2] = biological target: human GLP-1 receptor (human, UniProt P43220 24-463); test: cell-based or functional assay

Row | Molecule | EC50 hGLUC R [1] | EC50 hGLP-1 R [pM] [2] | EC50 hGLUC R [pM] [1]
1 | HSQGTFTSDYSKYLDSRRAQDFVQWLM^27-N-T-C(VS-DO3A)-NH2 (peptide) | 0.7 pM |  | 
2 | XSQGTFTSDYSKQLESRRAQEFIEWLLAGGPESGAPPPSX (Tza at 1; Cys(VS-DO3A(Ga)) at 40; C-terminal -OH) [SEQ ID NO: 80] |  | 5130 pM | 0.7 pM
3 | XSQGTFTSDYSKQLESRRAQEFIEWLLAGGPESGAPPPSX (Tza at 1; Cys(mal-DOTA(Ga)) at 40; C-terminal amide) [SEQ ID NO: 7] |  | 7530 pM | 
4 | XSQGTFXSDLSKQXESRRAQDFIEWLLATGPESGAPPPSX (Tza at 1; Aib at 7; Nle at 14; Cys(mal-NODAGA) at 40; C-terminal amide) [SEQ ID NO: 17] |  | 1e+07 pM | 
5 | XSQGTFXSDLSKQXESRRAQDFIEWLLATGPESGAPPPSX (Tza at 1; Aib at 7; Nle at 14; Cys(mal-NOTA) at 40; C-terminal amide) [SEQ ID NO: 16] |  | 1e+07 pM | 
6 | XSQGTFTSDYSRQLESRRAQEFIEWLLATGPESGAPPPSX (Tza at 1; Lys(VS-DO3A(Ga)) at 40; C-terminal amide) [SEQ ID NO: 44] |  |  | 0.8 pM
7 | XSQGTFTSDYSKQLESRRAQEFIEWLLAGGPESGAPPPSX (Tza at 1; Cys(mal-NOTA(Ga)) at 40; C-terminal amide) [SEQ ID NO: 9] |  | 4200 pM | 1 pM
8 | XSQGTFTSDTSKQLESRRAQEFIEWLLATGPESGAPPPSX (Tza at 1; Cys(VS-DO3A(Ga)) at 40; C-terminal amide) [SEQ ID NO: 48] |  | 297000 pM | 60.1 pM
9 | XSQGTFTSDISKQXESRRAQEFIEWLLATGPESGAPPPSX (Tza at 1; Nle at 14; Cys(VS-DO3A(Ga)) at 40; C-terminal amide) [SEQ ID NO: 36] |  | 65300 pM | 
10 | XSQGTFTSDYSKQLESRRAQEFIEWLLATGPESGAPPPSX (Tza at 1; Cys(VS-DO3A(Ga)) at 40; C-terminal amide) [SEQ ID NO: 34] |  | 18800 pM | 0.8 pM
11 | XSQGTFTSDYSKQLESRRAQEFIEWLLAGGPESGAPPPSX (Tza at 1; Cys(mal-NODAGA(Ga)) at 40; C-terminal amide) [SEQ ID NO: 10] |  |  | 0.9 pM
12 | B1 |  | 12900 pM | 0.7 pM
13 | XSQGTFTSDTSKQLESRRAQEFIEWLLATGPESGAPPPSX (Tza at 1; Cys(VS-DO3A) at 40; C-terminal amide) [SEQ ID NO: 47] |  | 1e+07 pM | 
14 | XSQGTFTSDYSKQLESRRAQEFIEWLLAGGPESGAPPPSX (Tza at 1; Cys(VS-DO3A(Ga)) at 40; C-terminal amide) [SEQ ID NO: 8] |  | 4130 pM | 
15 | XXQGTFTSDYSKQLDEQRAQEFIEWLLATGPESGAPPPSX (Tza at 1; D-Ser at 2; Cys(VS-DO3A(Ga)) at 40; C-terminal amide) [SEQ ID NO: 86] |  | 115000 pM | 0.9 pM
16 | XSQGTFXSDLAKQXESRRAQDFIEWLLATGPESGAPPPSX (Tza at 1; Aib at 7; Nle at 14; Cys(VS-DO3A) at 40; C-terminal amide) [SEQ ID NO: 31] |  | 1e+07 pM | 
17 | XSQGTFXSDLSKQXESRRAKDFIEWLLATGPESGAPPPSX (Tza at 1; Aib at 7; Nle at 14; Cys(VS-DO3A) at 40; C-terminal amide) [SEQ ID NO: 51] |  | 1e+07 pM | 
